Paper PMC3823801, “Structure Reveals Regulatory Mechanisms of a MaoC-Like Hydratase from Phytophthora capsici Involved in Biosynthesis of Polyhydroxyalkanoates (PHAs)” (PLoS ONE, 2013)

Biological target: the molecule itself
Test: SEC; analytical gel filtration, Superdex 75 10/300 GL, 10 mM Tris-HCl pH 8.5, 100 mM NaCl, 1 mM DTT; calibrated with BSA (66 kDa) and rabbit IgG (150 kDa)

B1: MaoC Del63-88 (enzyme)
chain: MSVNVDKILNSPEATYTATYNQRDLLMYAVGIGESDLQFTYEFDEKFSAFPLYPVCLPFKGQILHGEQSVEILRPLDPSGGTLTGKTKVISFYDKGKGTLMETQTQFEDGNGPVAKLISGSFIRGLTGYEGKGRKLPARVQIPKRQPDFNDEFKTSPHQAQVYRLSGDYNSLHIDPEIAKSVGFKQPILHGLCSMGVASRALFKQFCGGDVARFKSIRVRFSSPCFPGETIQTRMWQEGSGKVLFQAVVKERGAVIVDGGEFVYTQDASARL
notes: MaoC-like hydratase, Phytophthora capsici strain SD33, full length with residues 63-88 deleted; Made from the wild-type plasmid (pET28-MaoC) with the MutanBEST kit; source: E. coli BL21 (DE3) pLysS, purified as described for the wild-type protein
  binding result: binds

B2: MaoC-like hydratase from Phytophthora capsici (enzyme)
chain: MSVNVDKILNSPEATYTATYNQRDLLMYAVGIGESDLQFTYEFDEKFSAFPLYPVCLPFKGQSQDVVPFPPETISAAPDGMPSFNPAMILHGEQSVEILRPLDPSGGTLTGKTKVISFYDKGKGTLMETQTQFEDGNGPVAKLISGSFIRGLTGYEGKGRKLPARVQIPKRQPDFNDEFKTSPHQAQVYRLSGDYNSLHIDPEIAKSVGFKQPILHGLCSMGVASRALFKQFCGGDVARFKSIRVRFSSPCFPGETIQTRMWQEGSGKVLFQAVVKERGAVIVDGGEFVYTQDASARL
notes: MaoC-like hydratase, Phytophthora capsici strain SD33, full length (Met-1 to Leu-298); Cloned BamHI/EcoRI into pET28a; no step that removes the tag is described, and the purified enzymes were detected with anti-His antibody on western blots; also called wild type MaoC; native MaoC; source: E. coli BL21 (DE3) pLysS, purified (Ni-NTA, Superdex-75 gel filtration)
  stoichiometry N: 2

B3: MaoC Del63-71 (enzyme)
chain: MSVNVDKILNSPEATYTATYNQRDLLMYAVGIGESDLQFTYEFDEKFSAFPLYPVCLPFKGQETISAAPDGMPSFNPAMILHGEQSVEILRPLDPSGGTLTGKTKVISFYDKGKGTLMETQTQFEDGNGPVAKLISGSFIRGLTGYEGKGRKLPARVQIPKRQPDFNDEFKTSPHQAQVYRLSGDYNSLHIDPEIAKSVGFKQPILHGLCSMGVASRALFKQFCGGDVARFKSIRVRFSSPCFPGETIQTRMWQEGSGKVLFQAVVKERGAVIVDGGEFVYTQDASARL
notes: MaoC-like hydratase, Phytophthora capsici strain SD33, full length with residues 63-71 deleted; Made from the wild-type plasmid (pET28-MaoC) with the MutanBEST kit; source: E. coli BL21 (DE3) pLysS, purified as described for the wild-type protein
  binding result: binds
